Laboratory results published in the domain aggregation screens of Martell et al. (2025).

test: soluble fraction after stress (log2 fold change); higher = more stays soluble; pooled small domains, quantitative proteomics; conditions: stress: 50 degC
How it was run: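 Pooled custom libraries of small protein domains were each held under stress at 50°C. The read-out, high-throughput quantitative proteomics, tracked how much of each protein stayed soluble. This is reported as a base-two log fold change used to indicate aggregation propensity. Higher values mean more protein remains in solution.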

| Sequence | soluble fraction (log2) |
| --- | --- |
| HMELEAFPNPTDMFLSFTTKEKTPLAIYDINGKQVLYVEQITSSSKINVSKLSEGVYFAKTNQGTVKWVK | -1.67 |
| HMIHFDHPERSILDTMLYEKKGMTAQSARNRLAAYQFQGEDVFKPVSVLSGGELSRITLAIKNAMADK | -0.186 |
| HMRSIVETLTDRELEIFQLIGNGFSTGEIARRLNLSPHTIETHRKNIKDKLGLSSGSELNKQAIQWVLSS | 0.153 |
| HMNTEFDVPDVVGKTLDEAEFVLKGSNLKRGLIMPVDDPSKAPGTIVRQNPEAGAGNKIRVGDVVDLWVVG | 0.168 |
| HMSDYLGSLSHEEKMIFNHFDEDSSTIENMAKKTELKPELISQIFLNLELRGFLRQTEGGLYEKI | -0.000348 |
| HMDQTKYDAIITEAKKLTAEGQYKESEEKLATIPVSDLGKPHYSIVKETVEKLNNQNNEGLKRQEEVAVE | -0.02 |
| HMEKIIFEISEEGKRLDLYIAERTELTRTRIQQLIKDGNINVNNKKSKPSYKVEKNDFIEMIIPDE | -0.56 |
| HMSQDTLIGRVGVIVIGQARTGSPAQVRVKDGFGQTHYVMAEPDSEGVLKQGEAVLLVSLEGNTFKAILNP | -0.286 |
| HMLETILQIGKDGVGENLVKQVNDALEARELIKGRVLDNNLELDARTAAQILAKATRSEVVQVIGTKFV | -0.0922 |
| HMASAAHYEGVKTEGESDNDVITRVLTATGVTAEKDDIFVVKSLIADGKYSYTAYVYDGSVWAAMD | -0.0797 |
| HMVDLEINGRQTLQFVANKYGIPVEKLATDLNIPSDRFGEKLGRLRRQYAFTMNDVRKSILKNK | 0.00739 |
| HMTAPQAQDYARVPDVLGLDMRESAQALRLDGFEMNAQGDGLAARQSPIGGSYAPEGTQVLVTFEM | 0.102 |
| HMAMTQNVDLAGRIVFNEKKEEVFNFGKHKGRSVAEVFEKEPSYYDWMLKGDFPAETKQVLTALRLRGLS | -0.0725 |
| HMPNYIDAISALLTLKGVGDRKHASTMANILNLQYNSAKQKLDGKRGITLDEVKKVFQYFNEPF | -1.1 |
| HMTAIWKTITATLTHDIATGKYAPGDRLPTEAQLAARFGVNRHTVRRAISDMNESGLTYSRRGAGVFVAQ | -2.59 |
| HMGGEEINMINLVGLSQSEAENQLAKLKLKIGQVTAEYSDKPSGTVLKQSISANNKVKKGADIDIVVSKG | 0.126 |
| HMGIRAFDPEAFDERLKEFFSMIAPYKKLDTRSLQPHFPHHAKEVAERIRQLAEAGKIKVDGFYISEL | -0.108 |
| HMTNVLSEQESKLLERMNKAGLNAEITVKKAAQILNLSESAARNVLNRLVGKGYLTVDTSRLPFLFQR | -0.0793 |
| HMEAQAHYDAIYKAHPNADSIAQSAEFKAWVDAQPSVVRNAYWQLFDPKEGGTAEQIVEVFDAFVKSS | -0.151 |

| Sequence | soluble fraction (log2) |
| --- | --- |
| HMGETWYEILEISSDATTEEIRQAYFEQARQYHPDTNPGELAREWFYQVQEAYETLSDPDRRRQYDESIKG | -0.402 |
| HMKFKDYYAALGIDRNADLEQIKKAYRKLARQYHPDVSKAPDAEARFKDAAEAYATLKNPEKRAAYDELGS | 0.062 |
| HMQDNPELVARIEKAAARGTSSMSDWERSFMGSLLDSAKKWGRLTAKQHEVFQRIEKKTDPAHQAAVS | 0.0476 |
| HMTDAEQHEALLFKQVVDGLPQTLRDTFVLSRHAGMTYAEISAHTGTPIKTVESRMAKALELIAQRMR | -0.67 |
| HMKVQEMTANSFLTQWEAGNVKTLDILPEGIIKGELNDGTKFQLYYSSAAGLIDDVKKNPEKFANTTVSEK | 0.129 |
| HMAGWIPVEERLPDDLTNPITRDAYVYPVTVDLGDVTDIRYYSFWRGHWYNQGPETMDDLVIAWMLLPEPY | -0.0981 |
| HMDIVLPFSFAKRHGVVLSERQGETELLYLKGLPVRVLAEARRVLRQEFTVRQVEQAVFDKALSESYQN | -1.04 |
| HMSIQDLMNSKDLSGFKVEMLSNEDIVKYKSMLQSSGFSESQAEQLALQRGLPTSELIKLRTRISDVAVT | 0.0344 |
| HMEQVQQIPIEELFPFKEHPFKVLDDEAMQRTVESVAQYGVLAPLIARPRPEGGYEIISGHRRQHAAELYR | -0.0852 |
| HMIPTTELAERLGTTKVANMIMLGALIKASGIISFDDMIKNLGELLGEGKAKLIKLNKEALEVGFN | -0.0172 |
| HMASMHDGVAARLRAMVFERELAPGEFIDERRLAQQWQISRTPLREALKVLAAEGLVELVPRRGARVV | -0.298 |
| HMSGPDGLTEREIEVLRLLASGLSNRAIGERLYISTNTAANHVRSILLKTGAANRTQAAMYAADHEML | -1.37 |
| HMSPKYLELVRWINTQIQEKKLTAGQKMYSENELKEMFGVSRQTVRHAISVLEGEGMIRRVRGSGTYINDN | -1.83 |
| HMKQDFVYNGFVEAKGDDLMVQINYKGETYYVTEGESFGGFTVKSANKDKVVLSGQGGAETVLEFR | -0.106 |
| HMNIILFLDELHRLLSDLPPEERNQAIKYYEDYFEDAGPENEQAILKELGSPQELANQIKATT | -0.627 |
| HMEDMMKALLDVVRAQHTATEGSEERPFDINDIIDMALNITGRPEEPEEQQELSDTIQKLAESLAPDIFP | -0.356 |
| HMSTTYAPYLLGETEQEAIRMARNAGLDPQVVRQSDKSEAGTVILQSHDFGFAMKRGAVILITVSSGPLQ | -1.44 |
| HMNFAERIKELRKEKGITQIDLAEAVGLSKGTVAMWEVDKREANFDTLNKLSDYFQVSIDYLLGRSNDRS | 0.0272 |
| HMIKLTVRQQEILDLIARSIDQTGFPPTRAEIAAELGFKSVNAAEEHLQALARKGVIEMVPGISRGIRLVQ | -0.395 |
